{"source": "paper PMC6883375", "about": "“Enolase From Aspergillus fumigatus Is a Moonlighting Protein That Binds the Human Plasma Complement Proteins Factor H, FHL-1, C4BP, and Plasminogen” (Frontiers in Immunology, 2019)", "molecules": {"B1": {"name": "Aspergillus fumigatus enolase (AfEno1), recombinant His-tagged (natural protein)", "chain": "MPISKIHARSVYDSRGNPTVEVDVVTETGLHRAIVPSGASTGQHEAHELRDGDKTQWGGKGVLKAVKNVNETIGPALIKENIDVKDQSKVDEFLNKLDGTANKSNLGANAILGVSLAVAKAGAAEKGVPLYAHISDLAGTKKPYVLPVPFQNVLNGGSHAGGRLAFQEFMIVPDSAPSFSEALRQGAEVYQKLKALAKKKYGQSAGNVGDEGGVAPDIQTAEEALDLITEAIEQAGYTGKIKIAMDVASSEFYKADVKKYDLDFKNPESDPSKWLTYEQLADLYKSLAAKYPIVSIEDPFAEDDWEAWSYFYKTSDFQIVGDDLTVTNPGRIKKAIELKSCNALLLKVNQIGTLTESIQAAKDSYADNWGVMVSHRSGETEDVTIADIAVGLRSGQIKTGAPCRSERLAKLNQILRIEEELGENAVYAGSKFRTAVNL", "notes": "enolase (AfEno1, allergen Aspf22) of Aspergillus fumigatus; the gene was cloned with six His residues added at the N-terminus; Vector printed as 'pET 4.1 a'; also called Aspf22; recombinant AfEno1; source: E. coli BL21 (DE3), purified (Ni-NTA, HisTrap); not shown: His6, N-terminal, kept"}, "B2": {"name": "Candida albicans Pra1 (pH-regulated antigen 1) (natural protein)", "chain": "APVTVTRFVDASPTGYDWRADWVKGFPIDSSCNATQYNQLSTGLQEAQLLAEHARDHTLRFGSKSPFFRKYFGNETASAEVVGHFDNVVGADKSSILFLCDDLDDKCKNDGWAGYWRGSNHSDQTIICDLSFVTRRYLTQLCSSGYTVSKSKTNIFWAGDLLHRFWHLKSIGQLVIEHYADTYEEVLELAQENSTYAVRNSNSLIYYALDVYAYDVTIPGEGCNGDGTSYKKSDFSSFEDSDSGSDSGASSTASSSHQHTDSNPSATTDANSHCHTHADGEVHC", "notes": "pH-regulated antigen 1 (Pra1) of Candida albicans; the construct is not described; also called C. albicans Pra1"}}, "key": {"[1]": {"target": "Aspergillus fumigatus enolase (AfEno1), recombinant His-tagged (Aspergillus fumigatus) (UniProt Q96X30)", "assay": "BLI; His-tagged AfEno1 on Ni-NTA biosensors; factor H, C4BP or plasminogen as analyte; DPBS with 0.001% gelatin, RT; association 250 s, dissociation 250 s; 1:1 model; heat inactivated regulators as non-binding control"}, "[2]": {"target": "T1, human C4b binding protein (C4BP) (human, UniProt P04003 49-597; P20851 18-252)", "T1 construct": "also called NHS-derived C4BP; plasma-derived C4BP; source: bought: CompTech (purified human C4BP); also in normal human serum (NHS); copies: 7 + 1", "T1 sequence 1": "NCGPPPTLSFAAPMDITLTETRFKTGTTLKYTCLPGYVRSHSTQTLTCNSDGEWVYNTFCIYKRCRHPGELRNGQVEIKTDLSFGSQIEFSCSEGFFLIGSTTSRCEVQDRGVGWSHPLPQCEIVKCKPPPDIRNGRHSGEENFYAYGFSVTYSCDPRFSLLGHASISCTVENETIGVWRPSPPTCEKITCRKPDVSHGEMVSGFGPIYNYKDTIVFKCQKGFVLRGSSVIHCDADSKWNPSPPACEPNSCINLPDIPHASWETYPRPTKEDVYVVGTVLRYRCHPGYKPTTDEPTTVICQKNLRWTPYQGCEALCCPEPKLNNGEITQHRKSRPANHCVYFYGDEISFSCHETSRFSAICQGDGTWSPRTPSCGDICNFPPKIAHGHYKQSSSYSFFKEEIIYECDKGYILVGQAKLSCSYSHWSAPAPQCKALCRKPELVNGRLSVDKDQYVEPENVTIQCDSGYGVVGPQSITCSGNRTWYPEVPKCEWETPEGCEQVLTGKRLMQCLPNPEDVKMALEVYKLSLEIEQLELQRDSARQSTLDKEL", "T1 sequence 2": "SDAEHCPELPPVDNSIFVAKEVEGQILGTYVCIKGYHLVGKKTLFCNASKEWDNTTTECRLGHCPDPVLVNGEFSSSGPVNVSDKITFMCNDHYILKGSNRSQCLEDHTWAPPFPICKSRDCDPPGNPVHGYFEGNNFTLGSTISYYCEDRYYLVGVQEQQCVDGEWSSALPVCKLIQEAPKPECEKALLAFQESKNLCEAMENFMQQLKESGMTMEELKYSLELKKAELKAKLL", "assay": "BLI; His-tagged AfEno1 on Ni-NTA biosensors; factor H, C4BP or plasminogen as analyte; DPBS with 0.001% gelatin, RT; association 250 s, dissociation 250 s; 1:1 model; heat inactivated regulators as non-binding control", "details": "both partners purified"}, "human factor H [3]": {"target": "T2, human factor H (human, UniProt P08603 19-1231)", "T2 construct": "complement factor H, human, 150-kDa plasma protein of 20 short conserved repeats (SCRs); also called NHS-derived factor H; serum-derived Factor H; source: bought: CompTech (purified human factor H); also in normal human serum (NHS)", "T2 sequence (P08603 19-1231)": "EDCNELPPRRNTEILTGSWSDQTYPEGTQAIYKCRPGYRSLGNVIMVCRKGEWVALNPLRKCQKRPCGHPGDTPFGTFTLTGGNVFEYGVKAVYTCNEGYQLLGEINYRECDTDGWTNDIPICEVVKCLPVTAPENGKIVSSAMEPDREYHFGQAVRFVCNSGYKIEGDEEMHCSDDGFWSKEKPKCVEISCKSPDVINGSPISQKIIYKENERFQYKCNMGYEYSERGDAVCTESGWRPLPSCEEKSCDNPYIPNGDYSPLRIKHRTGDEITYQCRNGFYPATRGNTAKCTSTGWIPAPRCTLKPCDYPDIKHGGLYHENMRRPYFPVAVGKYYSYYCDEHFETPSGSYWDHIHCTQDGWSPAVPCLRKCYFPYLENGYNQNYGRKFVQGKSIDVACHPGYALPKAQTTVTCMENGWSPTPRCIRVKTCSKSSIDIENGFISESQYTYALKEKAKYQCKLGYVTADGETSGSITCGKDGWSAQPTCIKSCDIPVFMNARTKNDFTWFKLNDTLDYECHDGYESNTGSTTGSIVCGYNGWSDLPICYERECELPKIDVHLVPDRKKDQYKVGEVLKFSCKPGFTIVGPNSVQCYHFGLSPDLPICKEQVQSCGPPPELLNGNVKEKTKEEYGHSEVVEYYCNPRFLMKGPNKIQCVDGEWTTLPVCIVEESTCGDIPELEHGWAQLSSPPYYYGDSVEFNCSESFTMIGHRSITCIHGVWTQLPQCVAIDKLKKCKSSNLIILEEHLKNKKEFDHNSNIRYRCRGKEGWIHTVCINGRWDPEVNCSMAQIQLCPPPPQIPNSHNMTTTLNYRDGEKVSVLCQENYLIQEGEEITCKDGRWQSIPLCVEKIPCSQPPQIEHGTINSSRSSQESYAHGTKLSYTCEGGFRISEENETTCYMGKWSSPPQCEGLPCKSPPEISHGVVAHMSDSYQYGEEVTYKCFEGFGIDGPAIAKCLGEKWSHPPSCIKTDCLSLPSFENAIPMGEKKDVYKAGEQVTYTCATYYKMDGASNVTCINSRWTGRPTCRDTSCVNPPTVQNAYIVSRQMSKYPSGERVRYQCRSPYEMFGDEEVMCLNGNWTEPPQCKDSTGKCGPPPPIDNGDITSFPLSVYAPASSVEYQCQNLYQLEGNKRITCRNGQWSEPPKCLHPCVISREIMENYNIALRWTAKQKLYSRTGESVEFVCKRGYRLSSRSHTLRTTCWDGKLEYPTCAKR", "assay": "BLI; His-tagged AfEno1 on Ni-NTA biosensors; factor H, C4BP or plasminogen as analyte; DPBS with 0.001% gelatin, RT; association 250 s, dissociation 250 s; 1:1 model; heat inactivated regulators as non-binding control", "details": "both partners purified"}, "human factor H [4]": {"target": "T2, human factor H", "assay": "not stated; data not shown; method and format not told"}}, "data": [{"molecule": "human plasminogen (natural protein)", "values": [{"measurement": "Kd", "setting": "[1]", "value": 530, "unit": "nM"}]}, {"molecule": "B1", "values": [{"measurement": "Kd", "setting": "[2]", "value": 131, "unit": "nM"}, {"measurement": "Kd", "setting": "human factor H [3]", "value": 528, "unit": "nM"}]}, {"molecule": "B2", "values": [{"measurement": "Kd", "setting": "human factor H [4]", "value": 1.87, "unit": "nM"}]}]}
